Test results as given in article doi:10.1101/2022.03.25.485794 (bioRxiv, 2022).
Where two headings read alike, the source gives them in different places.

B1: wild-type Qλ (Q protein of bacteriophage λ) (natural protein, UniProt P03047 1-207, looked up)
chain: MRLESVAKFHSPKSPMMSDSPRATASDSLSGTDVMAAMGMAQSQAGFGMAAFCGKHELSQNDKQKAINYLMQFAHKVSGKYRGVAKLEGNTKAKVLQVLATFAYADYCRSAATPGARCRDCHGTGRAVDIAKTELWGRVVEKECGRCKGVGYSRMPASAAYRAVTMLIPNLTQPTWSRTVKPLYDALVVQCHKEESIADNILNAVTR
B2: Qλ^M1S (Q protein of bacteriophage λ, M1S derivative) (natural protein, UniProt P03047 1-207, looked up)
chain: SRLESVAKFHSPKSPMMSDSPRATASDSLSGTDVMAAMGMAQSQAGFGMAAFCGKHELSQNDKQKAINYLMQFAHKVSGKYRGVAKLEGNTKAKVLQVLATFAYADYCRSAATPGARCRDCHGTGRAVDIAKTELWGRVVEKECGRCKGVGYSRMPASAAYRAVTMLIPNLTQPTWSRTVKPLYDALVVQCHKEESIADNILNAVTR

What was measured:
Test in all cases: cryo-EM structure
E. coli NusA = E. coli NusA (E. coli, UniProt P0AFF6 1-495)
[1] = target: T1, E. coli [Cys541;Pro607]-σ^70 (E. coli, UniProt P00579 1-613, R541C | L607P)
[2] = target: T1, E. coli [Cys541;Pro607]-σ^70; remark: listed apart in the source

Binder | binding result (E. coli NusA) | binding result [1] | binding result [2]
B1 | binds | binds | –
B2 | – | – | binds
